Patent publication US20200188479A1 (INTARCIA THERAPEUTICS, published 2020)
Ends that are not written are not given here.

Target: fraction V human serum albumin (human, UniProt P02768 25-609)
Experiment: cell-based or functional assay

Chain of fraction V human serum albumin (P02768 25-609 limits assumed): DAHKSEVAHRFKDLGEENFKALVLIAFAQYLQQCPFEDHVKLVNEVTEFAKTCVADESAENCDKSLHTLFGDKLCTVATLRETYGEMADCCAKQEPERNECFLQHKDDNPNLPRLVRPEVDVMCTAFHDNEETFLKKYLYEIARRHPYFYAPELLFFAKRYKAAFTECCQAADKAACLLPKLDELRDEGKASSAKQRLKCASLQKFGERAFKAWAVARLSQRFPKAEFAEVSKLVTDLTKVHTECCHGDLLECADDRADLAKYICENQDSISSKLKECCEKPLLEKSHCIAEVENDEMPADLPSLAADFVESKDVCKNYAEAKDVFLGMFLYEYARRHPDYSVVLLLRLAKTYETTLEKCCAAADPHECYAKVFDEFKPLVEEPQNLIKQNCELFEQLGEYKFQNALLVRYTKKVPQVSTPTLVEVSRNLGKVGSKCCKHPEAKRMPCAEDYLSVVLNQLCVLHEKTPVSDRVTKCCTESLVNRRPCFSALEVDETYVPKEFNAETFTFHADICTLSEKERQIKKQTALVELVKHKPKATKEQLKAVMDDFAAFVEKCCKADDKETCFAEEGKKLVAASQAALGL

fold decrease in potency shift in 4% vs 0.1% albumin (cAMP accumulation in hGLP1R-expressing CHO-K1 cells)	reduction in potency in 4% vs 0.1% albumin, relative to the effect observed with GLP-1[7-36]NH2	albumin-mediated change in potency for activation of GLP-1 receptors at 4% HSA versus 0.1% HSA	potency shift in 4% vs 0.1% albumin (cAMP accumulation in hGLP1R-expressing CHO-K1 cells)	Binder
19.9 fold	36.8 fold			HXEGTFTSDVSSYLEGQAAKEFIAWLVRGRG (Aib in position 8 (GLP-1 numbering); Lys carries N6-[N-(17-carboxy-1-oxoheptadecyl-L-c-glutamyl[2-(2-aminoethoxy)ethoxy]acetyl[2-(2-aminoethoxy)ethoxy]acetyl] residue (as printed in paragraph 217))) [semaglutide]
		0.54 fold (×)	1.8 fold	HAEGTFTSDVSSYLEGQAAKEFIAWLVKGR-NH2 [human GLP-1[7-36]NH2]
